Residue numbers refer to the chain shown, from its start. Numbers in names are those of the source. Where “and” joins values, the source holds several entries; their conditions need not be identical. Equal values may be shown once.
B1: C1q-like domain of otolin-1 from zebrafish (domain or fragment)
chain: not shown
notes: gC1q (C1q-like) domain of zebrafish otolin-1, UniProt A5PN28; printed monomer MW 17.1 kDa; Subcloned in pQE-80 L; also called dOtolC1q; native dOtolC1q
B2: C1q-like domain of otolin-1 from human (domain or fragment, UniProt A6NHN0 338-473, looked up)
chain: ARVPRSAFSAGLSKPFPPPNIPIKFEKILYNDQGNYSPVTGKFNCSIPGTYVFSYHITVRGRPARISLVAQNKKQFKSRETLYGQEIDQASLLVILKLSAGDQVWLEVSKDWNGVYVSAEDDSIFTGFLLYPEETS
notes: gC1q (C1q-like) domain of human otolin-1, UniProt A6NHN0; printed monomer MW 17.0 kDa; Subcloned in pQE-80 L; The tag is known only from TALON purification and a 6xHis Western blot; also called hOtolC1q; native hOtolC1q
B3: hOtolC1q E470A (domain or fragment, human, UniProt A6NHN0 338-473, looked up)
chain: B2 chain with E133A
notes: gC1q (C1q-like) domain of human otolin-1, UniProt A6NHN0, natural SNP variant E470A (rs3921595); also called E470A variant; natural variant hOtolC1q E470A; source: 0.1% NP40 substitute added to the cell suspension

Molecular target: the molecule itself
Assay: AUC; sedimentation velocity, c(s) analysis in SEDFIT; 10 mM CaCl2; 10 mM HEPES pH 7.0, 500 mM NaCl, 5% glycerol; 20 °C, 50,000 rpm; protein about 0.1, 0.25 and 0.5 mg/ml; self-association of the gC1q domain into trimers

| Protein | stoichiometry N |
| --- | --- |
| B1 | 2 and 3 |
| B2 | 3 |
| B3 | 3 |
